Test results taken from patent US20180086837A1 (Ablynx, published 2018).

Experiments:
human CXCR4 [1] = biological target: T1, human CXCR4 (human, UniProt P61073 1-352); assay: inhibition of 12G5 (competitor, 10 nM PE-labelled) binding, SUPT-1 cells
T1 construct: also called hCXCR4

human CXCR4 [2] = biological target: T1, human CXCR4; assay: cell-based or functional assay
human CXCR4 [3] = biological target: T1, human CXCR4; assay: inhibition of 12G5 (competitor, 10 nM PE-labelled) binding, THP-1 cells
human CXCR4 [4] = biological target: T1, human CXCR4; assay: inhibition of 12G5 (competitor, 10 nM PE-labelled) binding, Jurkat cells
human CXCR4 [5] = biological target: T1, human CXCR4; assay: cell-based or functional assay; remark: listed apart in the source
human CXCR4 [6] = biological target: T1, human CXCR4; assay: SDF-1^AF647 displacement, SUPT-1 cells, flow cytometry, n = 3
human CXCR4 [7] = biological target: T1, human CXCR4; assay: inhibition of 12G5 binding, Jurkat cells
[8] = biological target: T2, human CD4 expressed on cells (human, UniProt P01730 26-458); assay: cell-based or functional assay
human CXCR4 [9] = biological target: T1, human CXCR4; assay: ELISA on coated hCXCR4 lipoparticles versus null lipoparticles, anti-c-myc + anti-mouse-HRP
[10] = biological target: T2, human CD4 expressed on cells; assay: flow cytometry, primary human T cells, anti-flag detection
[11] = biological target: T2, human CD4 expressed on cells; assay: cell-based or functional assay; remark: listed apart in the source
[12] = biological target: T2, human CD4 expressed on cells; assay: flow cytometry, Jurkat E6-1 cells (CXCR4+/CD4low); Jurkat E6-1 cells (CXCR4+/CD4low), average of 3 experiments
[13] = biological target: T2, human CD4 expressed on cells; assay: cell-based or functional assay; remark: listed apart in the source
[14] = biological target: T2, human CD4 expressed on cells; assay: cell-based or functional assay; remark: listed apart in the source
[15] = biological target: T2, human CD4 expressed on cells; assay: flow cytometry, THP-1 cells, anti-flag detection
[16] = biological target: T2, human CD4 expressed on cells; assay: flow cytometry, MOLM-13 cells, anti-flag detection
[17] = biological target: T2, human CD4 expressed on cells; assay: cell-based or functional assay; remark: listed apart in the source
[18] = biological target: T2, human CD4 expressed on cells; assay: flow cytometry, Jurkat cells
[19] = biological target: T2, human CD4 expressed on cells; assay: flow cytometry, MOLM-13 cells (CXCR4+/CD4+)
[20] = biological target: T2, human CD4 expressed on cells; assay: cell-based or functional assay; remark: listed apart in the source
cynomolgus CD4 = biological target: T3, cynomolgus CD4 (cynomolgus, UniProt P79185 26-458); assay: flow cytometry on the cynomolgus CD4+ T cell line HSC-F, anti-Flag + goat anti-mouse-PE
T3 construct: whole, on cells; also called cyno CD4

[21] = biological target: T2, human CD4 expressed on cells; assay: flow cytometry, THP-1 cells
[22] = biological target: T2, human CD4 expressed on cells; assay: cell-based or functional assay; remark: listed apart in the source
[23] = biological target: T2, human CD4 expressed on cells; assay: cell-based or functional assay; remark: listed apart in the source

T1 sequence (P61073 whole entry): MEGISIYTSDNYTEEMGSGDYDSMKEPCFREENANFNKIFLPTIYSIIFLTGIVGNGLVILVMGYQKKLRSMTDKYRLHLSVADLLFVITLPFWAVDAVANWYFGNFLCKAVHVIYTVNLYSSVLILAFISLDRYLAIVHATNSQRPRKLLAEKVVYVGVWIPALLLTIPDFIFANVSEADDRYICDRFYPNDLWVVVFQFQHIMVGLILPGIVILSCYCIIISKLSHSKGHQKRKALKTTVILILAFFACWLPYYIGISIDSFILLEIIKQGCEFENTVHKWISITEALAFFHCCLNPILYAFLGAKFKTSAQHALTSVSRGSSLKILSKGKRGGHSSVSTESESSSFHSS
T3 sequence (P79185 26-458): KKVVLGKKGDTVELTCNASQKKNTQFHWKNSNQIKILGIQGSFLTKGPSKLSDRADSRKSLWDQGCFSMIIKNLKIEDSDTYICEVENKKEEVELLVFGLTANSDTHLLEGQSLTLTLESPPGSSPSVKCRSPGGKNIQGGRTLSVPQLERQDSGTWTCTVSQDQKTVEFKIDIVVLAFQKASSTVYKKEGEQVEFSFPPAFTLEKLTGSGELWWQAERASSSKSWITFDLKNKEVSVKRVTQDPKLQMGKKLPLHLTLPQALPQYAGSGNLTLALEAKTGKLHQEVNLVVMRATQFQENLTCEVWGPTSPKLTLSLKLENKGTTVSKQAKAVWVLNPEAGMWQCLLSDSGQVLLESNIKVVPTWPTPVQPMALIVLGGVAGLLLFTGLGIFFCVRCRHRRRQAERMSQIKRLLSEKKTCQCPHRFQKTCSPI

B1: 281F12-35GS-03F11 (bispecific antibody)
chain: EVQLVESGGGLVQAGDSLRLSCAASGRAFSRYAMGWFRQAPGKEREFVAAIGWGPSKTNYADSVKGRFTISRDNAKNTVYLQMNTLKPEDTAVYSCAAKFVNTDSTWSRSEMYTYWGQGTQVTVSSGGGGSGGGGSGGGGSGGGGSGGGGSGGGGSGGGGSEVQLVESGGGSVQPGGSLTLSCGTSGRTFNVMGWFRQAPGKEREFVAAVRWSSTGIYYTQYADSVKSRFTISRDNAKNTVYLEMNSLKPEDTAVYYCAADTYNSNPARWDGYDFRGQGTQVTVSS
notes: Bispecific Nanobody construct, CXCR4 arm N-terminal; also called 281F12-35GS-3F11; CXCR4-35GS-CD4; not shown: C-terminal c-myc-His6 tag (E. coli) or FLAG3-His6 tag (Pichia)
IC50 (human CXCR4 [1]): 1.5 nM | IC50, inhibition of SDF-1a-mediated chemotaxis, Jurkat E6-1 cells (human CXCR4 [2]): 110 nM | IC50, inhibition of SDF-1a-mediated chemotaxis, MOLM-13 cells (human CXCR4 [2]): 0.59 nM | Ratio to 281F12 (fold increase in potency), chemotaxis, Jurkat E6-1 cells (human CXCR4 [2]): 0.8 fold | Ratio to 281F12 (fold increase in potency), chemotaxis, MOLM-13 cells (human CXCR4 [2]): 146 fold | IC50 (human CXCR4 [3]): 2.48 nM | IC50 (human CXCR4 [4]): 29.3 nM | IC50, SDF-1 induced Ca2+ signaling, U87-CD4-CXCR4 cells (human CXCR4 [5]): 5.31 nM | IC50 (human CXCR4 [6]): 0.96 nM | fold loss of potency compared to monovalent CXCR4 Nanobody construct (human CXCR4 [7]): 2 fold

B2: Nanobody 03F11 (VHH)
VHH: EVQLVESGGGSVQPGGSLTLSCGTSGRTFNVMGWFRQAPGKEREFVAAVRWSSTGIYYTQYADSVKSRFTISRDNAKNTVYLEMNSLKPEDTAVYYCAADTYNSNPARWDGYDFRGQGTQVTVSS
notes: Monovalent anti-human CD4 Nanobody; also called CD4 3F11; anti-CD4 Nanobody 3F11; not shown: C-terminal myc-His6 tag (E. coli) or FLAG3-His6 tag (Pichia)
IC50, HIV1 infectivity, X4 NL4.3 in MT-4 cells [8]: 60.7 nM | binding result (human CXCR4 [9]): no binding (tested: 100 nM) | EC50 [10]: 0.76 nM | IC50, TZM-bl, DJ259 (R5) [11]: 169 nM | IC50, TZM-bl, NL4.3 3F11 res [11]: > 6700 nM | IC50, TZM-bl, NL4.3 281F12 res [11]: > 6700 nM | IC50, TZM-bl, NL4.3 WT (X4) [11]: 131 nM | IC50, TZM-bl, SM145 (R5) [11]: 8.33 nM | EC50 [12]: 1.4 nM | IC50, MT-4, HE (R5/X4) [13]: 10 nM | IC50, MT-4, HIV-2 ROD (R5/X4) [13]: 22.7 nM | IC50, MT-4, NL4.3 (X4) [13]: 34.7 nM | IC50, PBMC, BaL (R5) [13]: 610 nM | IC50, PBMC, DJ259 (R5) [13]: 31 nM | IC50, PBMC, HE (R5/X4) [13]: > 1700 nM | IC50, PBMC, NL4.3 (X4) [13]: 500 nM | IC50, PBMC, SM145 (R5) [13]: 27 nM | IC50, MT-4, NL4.3 2G12 res. [14]: 23.3 nM | IC50, MT-4, NL4.3 3F11 res. [14]: > 6700 nM | IC50, MT-4, NL4.3 281F12 res. [14]: > 6700 nM | IC50, MT-4, NL4.3 AMD-3100 res. [14]: 22.7 nM | IC50, MT-4, NL4.3 CXCL-12 res. [14]: 153 nM | IC50, MT-4, NL4.3 wt [14]: 34.7 nM | IC50, PBMC, NL4.3 3F11 res. [14]: > 6700 nM | IC50, PBMC, NL4.3 281F12 res. [14]: > 6700 nM | IC50, PBMC, NL4.3 WT [14]: 500 nM | EC50 [15]: 1 nM | EC50 [16]: 0.6 nM | IC50, MT-4 + NL4.3 (X4) [17]: 35.3 nM | IC50, PBMC + BaL (R5) [17]: 610 nM | IC50, PBMC + NL4.3 (X4) [17]: 580 nM | IC50, U87 + NL4.3 (X4) [17]: > 1330 nM | EC50 [18]: 1.1 nM | EC50 [19]: 0.7 nM | IC50, syncytia formation, SupT1 + HUT-78/IIIb [20]: 4600 nM | IC50, syncytia formation, SupT1 + HUT-78/NL4.3 [20]: 2800 nM | binding result (cynomolgus CD4): binds | EC50 [21]: 0.5 nM | IC50, HIV-1 neutralization, MT-4 + NL4.3 [22]: 34.7 nM | IC50, X4 HIV-1 NL4.3 replication in MT-4 cells [23]: 0.52 µg/mL
